Measured values from patent US6602854B1, “Branched multimeric Apo A-I agonist compounds” (priority 1997, dated 2003).
Where two headings read alike, the source gives them in different places.

How the values were obtained:
[1] = Procedure: […] (test sample). Delipidation was carried out by extracting the lipids with an equal volume of 2:1 (v/v) chloroform:methanol.
The samples were loaded onto a reverse-phase C18 HPLC column and eluted with a linear gradient (25-58% over 33 min.) of acetonitrile (containing 0.1% TFA). Elution profiles were followed by absorbance (220 nm) and radioactivity.

[2] = tested on: VLDL
Procedure: (§1) The association of peptide 4 (SEQ ID NO:4) with human lipoprotein fractions was determined by incubating ^14C-labeled peptide 4 (SEQ ID NO:4) with each lipoprotein class (HDL, LDL and VLDL) and a mixture of the different lipoprotein classes.
(§2) HDL, LDL and VLDL were isolated by KBr density gradient ultracentrifugation at d=1.21 g/ml and purified by FPLC on a Superose 6B column size exclusion column (chromatography was carried out with a flow rate of 0.7 ml/min. and a running buffer of 10 mM Tris (pH 8), 115 mM NaCl, 2 mM EDTA and 0.01% NaN3). ^14C-labeled peptide 4 was incubated with HDL, LDL and VLDL at a peptide:phospholipid ratio of 1:5 (mass ratio) for 2 h at 37° C. The required amount of lipoprotein (volumes based on amount needed to yield 1000 μg) was mixed with 0.2 ml of peptide stock solution (1 mg/ml) and the solution was brought up to 2.2 ml using 0.9% of NaCl according to TABLE XIII:
(§3) After incubating for 2 hr. at 37° C., an aliquot (0.1 ml) was removed for liquid scintillation counting to determine the total radioactivity, the density of the remaining incubation mixture was adjusted to 1.21 g/ml with KBr, and the samples centrifuged at 100,000 rpm (300,000 g) for 24 hours at 4° C. in a TLA 100.3 rotor using a Beckman tabletop ultracentrifuge. The resulting supernatant was fractionated by removing 0.3 ml aliquots from the top of each sample for a total of 5 fractions, and 0.05 ml of each fraction was used for liquid scintillation counting. The top two fractions contain the floating lipoproteins, the other fractions (3-5) correspond to proteins/peptides in solution.

[3] = tested on: HDL
Procedure: as §1, §2, §3

[4] = tested on: LDL
Procedure: as §1, §2, §3

[5] = tested on: mixture of HDL, LDL and VLDL
Procedure: as §1, §2, §3

[6] = tested on: isolated human HDL; assay: Formation of pre-β like particles: displacement of human ApoA-I from isolated human HDL; format: binding; conditions: increasing peptide:HDL mass ratio
Procedure: Human HDL was isolated by KBr density ultra centrifugation at density d=1.21 g/ml to obtain top fraction followed by Superose 6 gel filtration chromatography to separate HDL from other lipoproteins. Isolated HDL was adjusted to a final concentration of 1.0 mg/ml with physiological saline based on protein content determined by Bradford protein assay. An aliquot of 300 μl was removed from the isolated HDL preparation and incubated with 100 μl ^14C-labeled peptide 4 (0.2-1.0 μg/μl) for two hours at 37° C. Five separate incubations were analyzed including a blank containing 100 μl physiological saline and four dilutions of ^14C-labeled peptide 4: (i) 0.20 μg/μl peptide:HDL ratio=1:15; (ii) 0.30 μg/μl peptide:HDL ratio=1:10; (iii) […] peptide:HDL ratio=1:5; and (iv) 1.00 μg/μl peptide:HDL ratio=1:3. Following the two hour incubation, a 200 μl aliquot of the sample (total volume=400 μl) was loaded onto a Superose 6 gel filtration column for lipoprotein separation and analysis, and 100 μl was used to determine total radioactivity loaded. The conditions for all FPLC chromatographies were as described in Section 9.4, infra.

[7] = Pharmacokinetics in mice (radiolabeled peptide, intraperitoneal); format: in vivo; conditions: for HALF-LIFE: 2.5 mg/kg intraperitoneal
Procedure: In each experiment, 2.5 mg/kg radiolabeled peptide was injected intraperitoneally into mice which were fed normal mouse chow or the atherogenic Thomas-Harcroft modified diet (resulting in severely elevated VLDL and IDL cholesterol). Blood samples were taken at multiple time intervals for assessment of radioactivity in plasma.

[8] = Control (peptide without lipoprotein)

PVLDLFRELLNELLEALKQKLK [peptide 4]
peptide remaining intact ([1]; 8 day incubation in human serum, 37° C.): more than 80% | degraded peptide (3 min. peak), share of total radioactivity ([1]; human plasma, 8 days at 37° C.): approximately 15% | Recovery ([2]; VLDL/Peptide): 75% | radioactivity Total ([2]; VLDL/Peptide): 73280 | radioactivity Total before centrifugation ([2]; VLDL/Peptide): 97306 | radioactivity in Fraction 1 ([2]; VLDL/Peptide): 42920 | radioactivity in Fraction 2 ([2]; VLDL/Peptide): 19280 | radioactivity in Fraction 3 ([2]; VLDL/Peptide): 3930 | radioactivity in Fraction 4 ([2]; VLDL/Peptide): 2600 | radioactivity in Fraction 5 ([2]; VLDL/Peptide): 4550 | share of total radioactivity in fractions 1 and 2 (associated with lipoprotein) ([2]; incubation with isolated VLDL): 85% | Recovery ([3]; HDL/Peptide): 91% | radioactivity Total ([3]; HDL/Peptide): 89970 | radioactivity Total before centrifugation ([3]; HDL/Peptide): 98494 | radioactivity in Fraction 1 ([3]; HDL/Peptide): 61510 | radioactivity in Fraction 2 ([3]; HDL/Peptide): 17620 | radioactivity in Fraction 3 ([3]; HDL/Peptide): 2260 | radioactivity in Fraction 4 ([3]; HDL/Peptide): 3130 | radioactivity in Fraction 5 ([3]; HDL/Peptide): 5450 | share of total radioactivity in fractions 1 and 2 (associated with lipoprotein) ([3]; incubation with isolated HDL): 88% | Recovery ([4]; LDL/Peptide): 89% | radioactivity Total ([4]; LDL/Peptide): 89330 | radioactivity Total before centrifugation ([4]; LDL/Peptide): 100452 | radioactivity in Fraction 1 ([4]; LDL/Peptide): 43740 | radioactivity in Fraction 2 ([4]; LDL/Peptide): 15140 | radioactivity in Fraction 3 ([4]; LDL/Peptide): 11880 | radioactivity in Fraction 4 ([4]; LDL/Peptide): 10860 | radioactivity in Fraction 5 ([4]; LDL/Peptide): 7710 | share of total radioactivity in fractions 1 and 2 (associated with lipoprotein) ([4]; incubation with isolated LDL): 66% | Recovery [5, 8]: 89% | radioactivity Total [5, 8]: 79170 | radioactivity Total before centrifugation [5, 8]: 88550 | radioactivity in Fraction 1 [5, 8]: 650 | radioactivity in Fraction 2 [5, 8]: 1000 | radioactivity in Fraction 3 [5, 8]: 6590 | radioactivity in Fraction 4 [5, 8]: 36550 | radioactivity in Fraction 5 [5, 8]: 34380 | FPLC analysis of the LP/peptide incubation mixture (in words) ([5]; LP/Peptide): nearly all of the ^14C-labeled peptide 4 was associated with the HDL fraction | Recovery ([5]; LP/Peptide): 87% | radioactivity Total ([5]; LP/Peptide): 83650 | radioactivity Total before centrifugation ([5]; LP/Peptide): 96646 | radioactivity in Fraction 2 ([5]; LP/Peptide): 12990 | radioactivity in Fraction 3 ([5]; LP/Peptide): 3810 | radioactivity in Fraction 4 ([5]; LP/Peptide): 1510 | radioactivity in Fraction 5 ([5]; LP/Peptide): 5090 | radioactivity in Fraction 1 ([5]; LP/Peptide (HDL, LDL and VLDL)): 60250 | labeled peptide associated with the lipoprotein fraction ([5]; LP/Peptide, all lipoprotein fractions): 88% | displacement of native ApoA-I from HDL (in words) [6]: a displacement of ApoA-I was observed which increased with increasing concentration of peptide | maximum serum concentration reached ([7]; ApoE knockout mice): ^5The maximum serum concentration reached was 17.4% injected % injected cpm | time of maximum serum concentration following injection ([7]; ApoE knockout mice): cpm at 1.46 hours following injection. r^2 = 0.973. | HALF-LIFE ([7]; ApoE knockout mice): 14.2^5 hours | maximum serum concentration reached ([7]; C57BL/6 mice, normal diet): ^1The maximum serum concentration reached was 25.7% injected % injected cpm | time of maximum serum concentration following injection ([7]; C57BL/6 mice, normal diet): cpm at 1.9 hours following injection. r^2 = 0.960. | HALF-LIFE ([7]; C57BL/6 mice, normal diet): 5.72^1 hours | time of maximum serum concentration following injection ([7]; C57Bl/6 mice, high fat diet): cpm at 2.98 hours following injection. r^2 = 0.973. | HALF-LIFE ([7]; C57Bl/6 mice, high fat diet): 5.98^2 hours | association with plasma components in mice (in words) ([7]; mice, intraperitoneal): associated with the HDL component | time the peptide remained stable in the circulation ([7]; mice, intraperitoneal): at least 6 hours
